Reference: US20110217338A1

Key:
[1] = molecular target: IgG b12, broadly neutralizing anti-HIV-1 gp120 antibody; assay: SPR, Biacore 2000, 25 C, IgG b12 immobilized on CM5 chip (900 RU)
[2] = molecular target: b122a displayed on the surface of yeast EBY100; assay: flow cytometry of yeast EBY100 displaying b122a, b12 detected with anti-human-PE

| Substance | Kd [1] [nM] | concentration of b12 which showed appreciable binding [2] [µM] |
| --- | --- | --- |
| Core gp120 | 22 | – |
| IgG b12, broadly neutralizing anti-HIV-1 gp120 antibody | – | 9 |
| Wt gp120 (full-length HIV-1 gp120) | 17 | – |
